Data taken from patent US5616558A, “Medicaments comprising glicentin as active ingredient” (Nisshin Flour Milling Co., Ltd., priority 1992, dated 1997).

What was measured:
[1] = tested on: male MALB/c mice; assay: intraperitoneal administration to mice, observation of appearance; format: in vivo; conditions: 10 mg/kg intraperitoneally, male MALB/c mice (6 weeks age)
[2] = tested on: arginine loaded dogs; assay: infusion into the pancreatic artery of arginine loaded dogs; plasma insulin, plasma glucagon and blood glucose measured; format: in vivo, mongrel dogs; conditions: 100 pmol or 400 pmol glicentin solution infused into the pancreatic artery for 10 minutes
Method: Healthy mongrel dogs weighing 13 to 17 kg were subjected to the test after an overnight fast (A. Ohneda et al., Hotre. Metab. Res., 9, 447-452 (1977)).
The animals were anesthetized with sodium pentobarbital (Nembutal®) and their abdomens were opened. […] After the operation was completed, saline solution containing 0.5% arginine was infused into the pancreatic artery at a constant rate of 2 ml/min through the cannula using an infusion pump. […] 4 ml portions of blood samples for hormone assay were collected at various intervals into a glass tube containing 1000 KIU aprotinine and 10 mg EDTA.
The plasma insulin was measured in accordance with a known method mentioned in C.
The blood glucose was measured for blood drawn from the femoral artery by the glucose oxidase method using a test kit for the determination of blood glucose (available from Wako Pure Chemical Industries, Japan under the trade name of "Glucose B-Test Wako").

B1: glicentin: peptide comprising 69 amino acid residues, major component of gut glucagon-like immunoreactants; produced by recombinant DNA in E. coli (protein)
chain: RSLQDTEEKSRSFSASQADPLSDPDQMNEDKRHSQGTFTSDYSKYLDSRRAQDFVQWLMNTKRNRNNIA
For B1, the change in appearance [1] was “no change in appearance”, the “insulin secretion (plasma insulin, IRI)” value ([2]; 0.5% arginine infusion, anesthetized dogs) was “stimulates insulin secretion” and the “glucagon level (IRG(G 21))” value ([2]; antiserum G 21 specific for C-terminal portion of glucagon) was “not increased”. For the same molecule, the blood glucose levels ([2]; blood from femoral artery, glucose oxidase method) was “no change”.
